The values below come from patent US20240025959A1 (UNIVERSITY OF SOUTHERN CALIFORNIA, published 2024).

One experiment addresses T1, WIPI1 (human, UniProt Q5MNZ9 1-446).
T1 sequence (looked up): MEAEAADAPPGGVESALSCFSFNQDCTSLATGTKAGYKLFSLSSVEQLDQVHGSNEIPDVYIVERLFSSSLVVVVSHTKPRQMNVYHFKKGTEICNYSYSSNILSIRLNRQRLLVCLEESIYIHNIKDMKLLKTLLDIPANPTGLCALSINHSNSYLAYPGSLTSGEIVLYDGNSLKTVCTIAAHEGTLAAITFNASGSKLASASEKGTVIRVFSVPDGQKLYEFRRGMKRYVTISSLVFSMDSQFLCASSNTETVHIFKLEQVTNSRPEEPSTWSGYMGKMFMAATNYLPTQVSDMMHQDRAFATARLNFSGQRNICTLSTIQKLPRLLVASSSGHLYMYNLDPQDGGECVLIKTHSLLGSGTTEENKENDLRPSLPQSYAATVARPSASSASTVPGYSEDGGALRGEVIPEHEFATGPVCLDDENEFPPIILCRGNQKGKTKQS
Kind of experiment: endogenous co-IP; 293T cell lysates immunoprecipitated with antibodies against each protein, immunoblot (FIG. 9D). A general note: Immunoblotting shows a protein as a band on a membrane.

The target in another experiment is T2, ULK1 (human, UniProt O75385 1-1050).
T2 construct: also called HA-ULK1
T2 sequence (looked up): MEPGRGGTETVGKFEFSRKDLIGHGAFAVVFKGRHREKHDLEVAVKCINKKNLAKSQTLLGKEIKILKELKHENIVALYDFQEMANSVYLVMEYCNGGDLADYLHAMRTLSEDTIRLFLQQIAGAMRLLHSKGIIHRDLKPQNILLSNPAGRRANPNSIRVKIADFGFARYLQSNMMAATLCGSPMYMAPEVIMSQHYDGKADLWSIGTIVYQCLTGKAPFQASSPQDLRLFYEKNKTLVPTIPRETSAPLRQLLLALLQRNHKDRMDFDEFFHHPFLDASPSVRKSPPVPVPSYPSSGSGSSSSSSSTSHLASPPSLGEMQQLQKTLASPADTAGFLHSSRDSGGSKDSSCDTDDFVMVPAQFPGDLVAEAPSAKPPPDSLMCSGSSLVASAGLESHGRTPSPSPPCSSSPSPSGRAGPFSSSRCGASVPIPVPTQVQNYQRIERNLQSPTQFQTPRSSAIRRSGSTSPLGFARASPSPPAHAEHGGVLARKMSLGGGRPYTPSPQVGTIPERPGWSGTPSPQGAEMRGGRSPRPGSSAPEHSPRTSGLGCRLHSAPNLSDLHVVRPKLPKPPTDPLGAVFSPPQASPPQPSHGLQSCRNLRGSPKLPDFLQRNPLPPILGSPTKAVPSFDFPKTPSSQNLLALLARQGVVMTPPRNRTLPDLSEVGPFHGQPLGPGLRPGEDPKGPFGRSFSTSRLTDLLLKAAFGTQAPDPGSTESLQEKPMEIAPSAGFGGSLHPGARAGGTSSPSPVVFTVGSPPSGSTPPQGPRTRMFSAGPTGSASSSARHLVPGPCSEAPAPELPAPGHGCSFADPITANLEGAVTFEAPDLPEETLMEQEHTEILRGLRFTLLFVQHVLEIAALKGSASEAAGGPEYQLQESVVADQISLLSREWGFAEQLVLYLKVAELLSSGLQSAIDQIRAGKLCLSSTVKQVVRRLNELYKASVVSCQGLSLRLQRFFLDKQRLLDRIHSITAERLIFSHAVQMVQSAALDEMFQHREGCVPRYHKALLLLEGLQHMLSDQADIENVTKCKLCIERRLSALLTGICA
The experiment is described as follows: co-IP with anti-Flag beads and immunoblot; 293T cells co-transfected with Flag-Beclin 2 and HA-ULK1, complete or starvation medium (FIG. 10B).

The next experiment addresses T3, ATG9A (human) (human, UniProt Q7Z3C6 1-839).
T3 construct: Transmembrane protein; co-IP from RIPA lysates; Tagged and endogenous human forms kept under one id; also called Flag-ATG9A; HA-ATG9A
T3 sequence (looked up): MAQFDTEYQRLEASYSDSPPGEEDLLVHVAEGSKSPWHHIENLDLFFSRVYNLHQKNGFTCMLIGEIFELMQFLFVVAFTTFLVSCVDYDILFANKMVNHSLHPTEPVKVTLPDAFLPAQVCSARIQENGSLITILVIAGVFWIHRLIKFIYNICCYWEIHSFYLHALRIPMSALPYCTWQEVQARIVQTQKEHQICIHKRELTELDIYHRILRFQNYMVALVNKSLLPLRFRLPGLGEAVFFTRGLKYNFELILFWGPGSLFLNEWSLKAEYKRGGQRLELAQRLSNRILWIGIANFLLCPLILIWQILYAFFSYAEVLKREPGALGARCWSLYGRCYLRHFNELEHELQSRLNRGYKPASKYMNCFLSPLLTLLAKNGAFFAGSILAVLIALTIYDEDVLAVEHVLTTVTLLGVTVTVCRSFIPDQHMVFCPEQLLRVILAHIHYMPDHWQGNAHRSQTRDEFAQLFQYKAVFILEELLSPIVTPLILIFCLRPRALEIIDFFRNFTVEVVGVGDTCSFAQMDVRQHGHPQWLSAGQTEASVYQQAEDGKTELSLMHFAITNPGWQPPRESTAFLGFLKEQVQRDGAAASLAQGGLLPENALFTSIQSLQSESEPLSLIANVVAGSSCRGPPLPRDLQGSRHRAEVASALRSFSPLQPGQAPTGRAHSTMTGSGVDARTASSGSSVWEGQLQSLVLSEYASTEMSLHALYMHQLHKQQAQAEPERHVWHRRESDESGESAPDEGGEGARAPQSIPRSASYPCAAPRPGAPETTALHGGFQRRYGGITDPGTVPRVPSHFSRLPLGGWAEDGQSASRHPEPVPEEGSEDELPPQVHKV
The experiment is described as follows: co-IP with anti-Flag beads and immunoblot; 293T cells co-transfected with HA-Beclin 2 and a Flag-tagged plasmid (FIG. 10A).

A further experiment concerns the target T4, ATG13 (human, UniProt O75143 1-517, limits assumed).
T4 sequence (looked up): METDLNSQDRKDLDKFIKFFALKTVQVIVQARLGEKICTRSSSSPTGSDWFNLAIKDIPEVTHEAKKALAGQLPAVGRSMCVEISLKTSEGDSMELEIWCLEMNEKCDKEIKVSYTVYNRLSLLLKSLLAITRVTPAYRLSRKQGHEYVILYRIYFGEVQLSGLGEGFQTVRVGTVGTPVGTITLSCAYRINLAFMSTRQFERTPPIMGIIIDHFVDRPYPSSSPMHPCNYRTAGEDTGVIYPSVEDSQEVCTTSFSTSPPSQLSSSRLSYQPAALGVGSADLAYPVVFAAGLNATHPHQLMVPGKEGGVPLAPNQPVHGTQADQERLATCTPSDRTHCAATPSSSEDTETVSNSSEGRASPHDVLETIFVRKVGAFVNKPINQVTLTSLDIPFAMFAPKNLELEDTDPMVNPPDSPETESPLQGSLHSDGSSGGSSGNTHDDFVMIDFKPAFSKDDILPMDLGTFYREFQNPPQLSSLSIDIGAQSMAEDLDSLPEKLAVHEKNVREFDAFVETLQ
The experiment is described as follows: co-IP and immunoblot in 293T cells, as summed up in the discussion.

The next experiment deals with T5, FIP200 (human, UniProt Q8TDY2 1-1594).
T5 construct: also called Flag-FIP200; hFIP200
The experiment is described as above.

The target of a further experiment is ERK5 (UniProt Q13164 1-816). Kind of experiment: co-IP with anti-Flag beads and immunoblot; 293T cells co-transfected with Flag-Beclin 2 and an HA-tagged plasmid (FIG. 8A).
Chain of ERK5 (Q13164 whole entry): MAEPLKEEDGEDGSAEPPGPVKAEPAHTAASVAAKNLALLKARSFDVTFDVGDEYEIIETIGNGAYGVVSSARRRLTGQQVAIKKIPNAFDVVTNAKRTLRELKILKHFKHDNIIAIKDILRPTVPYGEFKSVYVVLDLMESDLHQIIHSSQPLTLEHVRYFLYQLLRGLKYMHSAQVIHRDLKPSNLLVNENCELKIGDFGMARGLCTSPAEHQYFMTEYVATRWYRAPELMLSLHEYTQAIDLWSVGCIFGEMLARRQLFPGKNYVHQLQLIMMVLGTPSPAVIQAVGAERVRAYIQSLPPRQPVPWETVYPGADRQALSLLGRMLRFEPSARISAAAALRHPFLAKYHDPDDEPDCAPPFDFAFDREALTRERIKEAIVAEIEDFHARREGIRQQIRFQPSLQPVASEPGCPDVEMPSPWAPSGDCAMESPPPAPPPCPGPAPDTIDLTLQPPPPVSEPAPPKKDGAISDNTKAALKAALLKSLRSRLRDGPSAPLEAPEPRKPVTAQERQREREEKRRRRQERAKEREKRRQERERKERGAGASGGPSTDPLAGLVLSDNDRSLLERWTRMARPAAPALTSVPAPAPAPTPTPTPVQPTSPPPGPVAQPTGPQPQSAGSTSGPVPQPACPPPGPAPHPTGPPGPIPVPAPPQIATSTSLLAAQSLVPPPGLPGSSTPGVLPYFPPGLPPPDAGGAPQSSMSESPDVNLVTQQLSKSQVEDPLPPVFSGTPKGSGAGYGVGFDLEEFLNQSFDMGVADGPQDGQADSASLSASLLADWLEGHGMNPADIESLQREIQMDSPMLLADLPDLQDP

T5 sequence (Q8TDY2 whole entry): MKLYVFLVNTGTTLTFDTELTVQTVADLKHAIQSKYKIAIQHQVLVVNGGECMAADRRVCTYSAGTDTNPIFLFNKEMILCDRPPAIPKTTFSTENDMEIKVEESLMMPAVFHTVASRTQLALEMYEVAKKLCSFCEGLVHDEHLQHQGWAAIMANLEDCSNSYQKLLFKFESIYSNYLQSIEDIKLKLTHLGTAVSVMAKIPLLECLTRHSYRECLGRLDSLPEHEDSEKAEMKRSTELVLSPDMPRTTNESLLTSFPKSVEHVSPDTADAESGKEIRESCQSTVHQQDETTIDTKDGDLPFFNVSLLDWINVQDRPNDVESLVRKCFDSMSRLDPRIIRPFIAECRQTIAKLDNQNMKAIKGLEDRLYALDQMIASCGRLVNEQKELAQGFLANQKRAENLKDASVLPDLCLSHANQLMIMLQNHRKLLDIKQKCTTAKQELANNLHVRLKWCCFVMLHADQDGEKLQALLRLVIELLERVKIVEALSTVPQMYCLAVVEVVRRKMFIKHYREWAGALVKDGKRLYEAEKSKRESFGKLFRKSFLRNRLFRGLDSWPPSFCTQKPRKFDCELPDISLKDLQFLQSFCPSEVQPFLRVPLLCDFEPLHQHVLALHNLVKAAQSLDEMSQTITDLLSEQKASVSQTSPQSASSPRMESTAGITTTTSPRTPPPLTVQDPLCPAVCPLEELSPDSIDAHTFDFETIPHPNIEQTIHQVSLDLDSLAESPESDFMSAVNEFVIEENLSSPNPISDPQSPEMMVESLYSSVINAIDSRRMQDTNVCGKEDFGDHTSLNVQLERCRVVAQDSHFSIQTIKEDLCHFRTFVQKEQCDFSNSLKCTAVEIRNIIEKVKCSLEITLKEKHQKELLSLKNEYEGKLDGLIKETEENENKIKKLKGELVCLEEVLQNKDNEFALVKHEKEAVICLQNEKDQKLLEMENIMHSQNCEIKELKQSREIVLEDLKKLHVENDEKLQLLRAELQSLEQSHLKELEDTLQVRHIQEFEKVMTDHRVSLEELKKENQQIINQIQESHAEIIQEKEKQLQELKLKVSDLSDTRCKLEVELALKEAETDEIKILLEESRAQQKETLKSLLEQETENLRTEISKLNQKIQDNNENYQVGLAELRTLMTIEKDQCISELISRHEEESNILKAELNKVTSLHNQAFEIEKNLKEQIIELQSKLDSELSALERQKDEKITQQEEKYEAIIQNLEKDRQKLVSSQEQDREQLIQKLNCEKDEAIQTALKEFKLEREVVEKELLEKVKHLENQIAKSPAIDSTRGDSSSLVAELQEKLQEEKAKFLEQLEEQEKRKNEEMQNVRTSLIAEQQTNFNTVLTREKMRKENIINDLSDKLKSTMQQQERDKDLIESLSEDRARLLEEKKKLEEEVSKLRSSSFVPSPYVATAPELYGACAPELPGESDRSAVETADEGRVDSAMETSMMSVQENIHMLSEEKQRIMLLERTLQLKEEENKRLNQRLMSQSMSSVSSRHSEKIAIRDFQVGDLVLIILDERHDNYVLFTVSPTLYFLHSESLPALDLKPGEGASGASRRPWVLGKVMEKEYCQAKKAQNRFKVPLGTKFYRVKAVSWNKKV
Experimental for ERK5: (§1) The secondary antibody (Veriblot for IP detection reagent HRP) that only recognized native IgG but not denatured IgG was applied for immunoblotting of proteins in immunoprecipitates. For immunoprecipitation of Flag-tagged proteins, cell lysates were incubated with anti-Flag beads (Sigma) at 4° C. overnight. The beads were washed four times with RIPA lysis buffer, and immunoprecipitates were eluted with 2×SDS loading buffer. Immunoblotting was performed by loading the samples on SDS-PAGE gels, conducting electrophoresis, transferring the samples to PVDF membranes (Bio-Rad), and then incubating the membranes with the indicated antibodies. For all immunoblots, the LumiGLO Chemiluminescent Substrate System from KPL (Gaithersburg, MD) was used for protein detection.
Experimental for ULK1: as §1
Experimental for WIPI1: as §1

B1: Beclin 2 (human, full length) (other)
chain: MSSIRFLCQRCHQALKLSGSSESRSLPAAPAPTSGQAEPGDTREPGVTTREVTDAEEQQDGASSRSPPGDGSVSKGHANIFTLLGELGAMHMLSSIQKAAGDIFDIVSGQAVVDHPLCEECTDSLLEQLDIQLALTEADSQNYQRCLETGELATSEDEAAALRAELRDLELEEARLVQELEDVDRNNARAAADLQAAQAEAAELDQQERQHYRDYSALKRQQLELLDQLGNVENQLQYARVQRDRLKEINCFTATFEIWVEGPLGVINNFRLGRLPTVRVGWNEINTAWGQAALLLLTLANTIGLQFQRYRLIPCGNHSYLKSLTDDRTELPLFCYGGQDVFLNNKYDRAMVAFLDCMQQFKEEAEKGELGLSLPYGIQVETGLMEDVGGRGECYSIRTHLNTQELWTKALKFMLINFKWSLIWVASRYQK
notes: All tagged and endogenous human forms are kept under this one id; the form used is named under assay; also called BECN2; Flag-Beclin 2
Turning to B1, the binding result in the experiment with WIPI1 is recorded as “binds”; with ULK1, “binds”; with ATG9A (human), “binds”; with ATG13 it was “no binding”; in the experiment with FIP200, “no binding”; with ERK5 it was “no binding”.
